This data set deals with hnRNPK (6xHis-GFP fusion) (Homo sapiens, UniProt P61978 1-463). Put plainly: MST; Kd plotted in Fig 4B, value not in text; MST: 50 mM HEPES, 0.3 M KCl, pH 7.4, 40 nM RNA, protein dilution from 150 uM, temperature not stated; pull-down: 10 mM Tris-Cl pH 7.5, 20 mM KCl, 1.5 mM MgCl2. The following applies: protein: recombinant; tags: N-terminal 6xHis-GFP, TEV site; label: 5' 6-FAM; single strand.

Turning to UCAGUGCACUACAGAACUUUGU (ssRNA) [motif_mimic (miR-148a-3p)], the binding result is given as “binds”.

For the origin of these results see PMC8031663, “Caveolin‐1‐driven membrane remodelling regulates hnRNPK‐mediated exosomal microRNA sorting in cancer”.
